Among the data in article PMC10699557, “A recombinant approach for stapled peptide discovery yields inhibitors of the RAD51 recombinase” (Chemical Science, 2023) are Kd values, retold here.

The assay concerns the target HumRadA22. The assay can be described thus: fluorescence polarisation; competition: displacement of a fluorescently-labelled BRC4 repeat from HumRadA22; KD calculated from IC50; single titrations with three technical replicates at each point; mock (linear) samples with 500 uM TCEP.

B1: GB1-SP7-His8, mock-stapled (linear) (peptide)
chain: VNSSAFSGFCTASGKKLNVSCEALQKAVKLFSDIENIS
modifications: not checked
Broadly, the Kd is a measure of binding affinity in units of concentration. As for B1, the Kd is 39 nM.
